The target of one data set is T1, Human CD138 His (Homo sapiens, UniProt P18827).
T1 construct: His
T1 sequence (P18827 23-310): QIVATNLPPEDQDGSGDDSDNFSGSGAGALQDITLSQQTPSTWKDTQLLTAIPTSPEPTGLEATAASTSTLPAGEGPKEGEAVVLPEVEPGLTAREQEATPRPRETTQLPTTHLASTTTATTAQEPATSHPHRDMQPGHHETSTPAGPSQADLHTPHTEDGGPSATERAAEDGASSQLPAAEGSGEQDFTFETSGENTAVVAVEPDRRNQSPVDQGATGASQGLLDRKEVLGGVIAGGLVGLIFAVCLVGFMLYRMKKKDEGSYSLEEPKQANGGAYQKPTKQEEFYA
Nature of the data set: SPR kinetic binding, human CD138. The settings on record: bivalent analyte fit. On the procedure: Murine IgGs were purified from the hybridoma supernatants and the IgGs were subject to SPR (surface plasmon resonance) for kinetic binding measurements. Human or mouse CD138 His was immobilized on a GLM chip at […] on a BioRad Proteon. […] KDs were measured using bivalent analyte fit.
Background: In SPR one partner is held on a chip, and binding of the other changes the refractive index at the surface.

Data set [1] can be described thus: Size exclusion chromatography (SEC), percent monomer. Format: physicochemical. The settings on record: Table 19, after protein A purification. As to the method:
The antibodies were purified utilizing pH dependent, protein A purification (HiTrap MabSelect SuRe 5 mL). After purification, the antibodies were buffer exchanged into 1× DPBS using zeba spin columns. The recovery and relative stability as determined by size exclusion chromatography (SEC) analysis varied between the humanized antibodies (SEC profiles not shown). The nomenclature sometimes takes the form of hF6 xky-rep where h stands for humanized, F6 stands for F12P16F6-derived, x stands for the first letter of the first procedure used to generate the humanized heavy chain sequence (e.g., x can be a=abb, s=sdr, f=fra, or c=cdr), k stands for kappa light chain, and y stands for the first letter of the first procedure used to generate the humanized light chain sequence (a=abb, s=sdr, f=fra, c=cdr).

B1: F12P7G11: murine anti-CD138 hybridoma antibody; VH SEQ ID NO:85, VL SEQ ID NO:37 (antibody, listed as Mus musculus, V domains shown)
VH: QVQLQQSGAELARPGASVKLSCKASGYTFSSHWMQWVKQRPGQGLEWIGAIYPGDGDTRFTQKFKGKATLTADKSSNTAYMQLSSLASEDSAVYYCARGIYYDRSRAMDYWGQGTSVTVSS
VL: QIVLSQSPAILSASPGEKVTMTCRASSSVNYMHWYQQKPGSSPKHWIYATSYLASGVPARFSGSGSGTSYSLTISRVEAEDAATYYCQQWSSDPLTFGAGTKLELKR
Consider B1, for which, in the data set with Human CD138 His, the “hCD138 ka” value came to 3.81e+06 M⁻¹ s⁻¹ and the “hCD138 kd” value was found to be 0.033 s⁻¹.

B2: F6 ckf-rep: humanized anti-CD138 antibody; VH SEQ ID NO:90, VL SEQ ID NO:43 (antibody, V domains shown)
VH: QVQLVQSGAEVVKPGASVKLSCKASGYTFTSYYLYWVKKAPGQGLDWIGEIYPRSGGTNINEKFLSRVTLTADTSTSTAYLELSSLTSEDTAVYYCTRSLLYWGQGTTLTVSS
VL: DVVMTQSPLSLSVTLGQPASISCKSSQSLLASDGKTYLNWLQQRPGQSPRRLIYLVSKLDSGVPNRFSGSGSGTDFTLQISRVEAEDVGLYYCWQGAHFPFTFGSGTKLEIKR
modifications: Humanized Heavy chain variable region; Humanized Light chain variable region
Consider B2, for which the “SEC % Monomer” value in data set [1] was found to be 95.3%.

B3: F6 f1ka-rep: humanized anti-CD138 antibody; VH SEQ ID NO:91, VL SEQ ID NO:42 (antibody, V domains shown)
VH: QVQLQQSGAEVVKPGASVKLSCKASGYTFTSYYLYWVKKAPGQGLDWIGEIYPRSGGTNINEKFLSRVTLTADTSTSTAYMDLSSLTSEDTAVYYCTRSLLYWGQGTTLTVSS
VL: DVVMTQTPLSLSVTPGQPASISCKSSQSLLASDGKTYLNWLLQRPGQSPKRLIYLVSKLDSGVPNRFSGSGSGTDFTLQISRVEAEDVGLYYCMQGAHFPFTFGGGTKVEIKR
modifications: Humanized Heavy chain variable region; Humanized Light chain variable region
For the molecule B3, the “SEC % Monomer” value in data set [1] was 92.9%.

B4: F6 cka-rep: humanized anti-CD138 antibody; VH SEQ ID NO:90, VL SEQ ID NO:42 (antibody, V domains shown)
VH: QVQLVQSGAEVVKPGASVKLSCKASGYTFTSYYLYWVKKAPGQGLDWIGEIYPRSGGTNINEKFLSRVTLTADTSTSTAYLELSSLTSEDTAVYYCTRSLLYWGQGTTLTVSS
VL: DVVMTQTPLSLSVTPGQPASISCKSSQSLLASDGKTYLNWLLQRPGQSPKRLIYLVSKLDSGVPNRFSGSGSGTDFTLQISRVEAEDVGLYYCMQGAHFPFTFGGGTKVEIKR
modifications: Humanized Heavy chain variable region; Humanized Light chain variable region
As to B4, the “SEC % Monomer” value in data set [1] is 88.8%.

B5: F6 aks-rep: humanized anti-CD138 antibody; VH SEQ ID NO:89, VL SEQ ID NO:41 (antibody, V domains shown)
VH: QVQLVQSGAEVVKPGASVKLSCKASGYTFTSYYLYWVKKAPGQGLDWIGEIYPRSGGTNYAEKFQGRVTLTADTSTSTAYLELSSLTSEDTAVYYCTRSLLYWGQGTTLTVSS
VL: DVVMTQTPLSLSVTPGQPASISCKSSQSLLASDGKTYLNWLLQRPGQSPKRLIYLVSKLDSGVPNRFSGSGSGTDFTLQISRVEAEDVGLYYCWQGAHFPFTFGSGTKLEIKR
modifications: Humanized Heavy chain variable region; Humanized Light chain variable region
Take B5: the “SEC % Monomer” value in data set [1] is on record as 95.2%.

B6: F6 f2kf-rep: humanized anti-CD138 antibody; VH SEQ ID NO:92, VL SEQ ID NO:43 (antibody, V domains shown)
VH: QVQLQQSGAEVVKPGASVKLSCKASGYTFTSYYLYWVKKAPGQGLDWIGEIYPRSGGTNINEKFLSRVTITADESTSTVYMQLSSLTSEDSAVYYCTRSLLYWGQGTTLTVSS
VL: DVVMTQSPLSLSVTLGQPASISCKSSQSLLASDGKTYLNWLQQRPGQSPRRLIYLVSKLDSGVPNRFSGSGSGTDFTLQISRVEAEDVGLYYCWQGAHFPFTFGSGTKLEIKR
modifications: Humanized Heavy chain variable region; Humanized Light chain variable region
Regarding B6, the “SEC % Monomer” value in data set [1] worked out at 95.1%.

B7: F6 f1kf-rep: humanized anti-CD138 antibody; VH SEQ ID NO:91, VL SEQ ID NO:43 (antibody, V domains shown)
VH: QVQLQQSGAEVVKPGASVKLSCKASGYTFTSYYLYWVKKAPGQGLDWIGEIYPRSGGTNINEKFLSRVTLTADTSTSTAYMDLSSLTSEDTAVYYCTRSLLYWGQGTTLTVSS
VL: DVVMTQSPLSLSVTLGQPASISCKSSQSLLASDGKTYLNWLQQRPGQSPRRLIYLVSKLDSGVPNRFSGSGSGTDFTLQISRVEAEDVGLYYCWQGAHFPFTFGSGTKLEIKR
modifications: Humanized Heavy chain variable region; Humanized Light chain variable region
B7: the “SEC % Monomer” value in data set [1] is on record as 94.3%.

B8: F6 f2ka-rep: humanized anti-CD138 antibody; VH SEQ ID NO:92, VL SEQ ID NO:42; two lots (antibody, V domains shown)
VH: QVQLQQSGAEVVKPGASVKLSCKASGYTFTSYYLYWVKKAPGQGLDWIGEIYPRSGGTNINEKFLSRVTITADESTSTVYMQLSSLTSEDSAVYYCTRSLLYWGQGTTLTVSS
VL: DVVMTQTPLSLSVTPGQPASISCKSSQSLLASDGKTYLNWLLQRPGQSPKRLIYLVSKLDSGVPNRFSGSGSGTDFTLQISRVEAEDVGLYYCMQGAHFPFTFGGGTKVEIKR
modifications: Humanized Heavy chain variable region; Humanized Light chain variable region
notes: humanized anti-CD138 antibody; two lots
Regarding B8, the “SEC % Monomer” value in data set [1] (listed as F6 f2ka-rep (Lot 1)) amounted to 79.1%; in data set [1] (listed as F6 f2ka-rep (Lot 2)), 95%.

B9: F6 f1ks-rep: humanized anti-CD138 antibody; VH SEQ ID NO:91, VL SEQ ID NO:41 (antibody, V domains shown)
VH: QVQLQQSGAEVVKPGASVKLSCKASGYTFTSYYLYWVKKAPGQGLDWIGEIYPRSGGTNINEKFLSRVTLTADTSTSTAYMDLSSLTSEDTAVYYCTRSLLYWGQGTTLTVSS
VL: DVVMTQTPLSLSVTPGQPASISCKSSQSLLASDGKTYLNWLLQRPGQSPKRLIYLVSKLDSGVPNRFSGSGSGTDFTLQISRVEAEDVGLYYCWQGAHFPFTFGSGTKLEIKR
modifications: Humanized Heavy chain variable region; Humanized Light chain variable region
Consider B9, for which, in data set [1], the “SEC % Monomer” value worked out at 95.6%.

B10: F6 f2ks-rep: humanized anti-CD138 antibody; VH SEQ ID NO:92, VL SEQ ID NO:41 (antibody, V domains shown)
VH: QVQLQQSGAEVVKPGASVKLSCKASGYTFTSYYLYWVKKAPGQGLDWIGEIYPRSGGTNINEKFLSRVTITADESTSTVYMQLSSLTSEDSAVYYCTRSLLYWGQGTTLTVSS
VL: DVVMTQTPLSLSVTPGQPASISCKSSQSLLASDGKTYLNWLLQRPGQSPKRLIYLVSKLDSGVPNRFSGSGSGTDFTLQISRVEAEDVGLYYCWQGAHFPFTFGSGTKLEIKR
modifications: Humanized Heavy chain variable region; Humanized Light chain variable region
B10: the “SEC % Monomer” value in data set [1] is on record as 77.6%.

B11: F6 akf-rep: humanized anti-CD138 antibody; VH SEQ ID NO:89, VL SEQ ID NO:43 (antibody, V domains shown)
VH: QVQLVQSGAEVVKPGASVKLSCKASGYTFTSYYLYWVKKAPGQGLDWIGEIYPRSGGTNYAEKFQGRVTLTADTSTSTAYLELSSLTSEDTAVYYCTRSLLYWGQGTTLTVSS
VL: DVVMTQSPLSLSVTLGQPASISCKSSQSLLASDGKTYLNWLQQRPGQSPRRLIYLVSKLDSGVPNRFSGSGSGTDFTLQISRVEAEDVGLYYCWQGAHFPFTFGSGTKLEIKR
modifications: Humanized Heavy chain variable region; Humanized Light chain variable region
With B11, in data set [1], the “SEC % Monomer” value came to 95.4%.

B12: F6 aka-rep: humanized anti-CD138 antibody; VH SEQ ID NO:89, VL SEQ ID NO:42 (antibody, V domains shown)
VH: QVQLVQSGAEVVKPGASVKLSCKASGYTFTSYYLYWVKKAPGQGLDWIGEIYPRSGGTNYAEKFQGRVTLTADTSTSTAYLELSSLTSEDTAVYYCTRSLLYWGQGTTLTVSS
VL: DVVMTQTPLSLSVTPGQPASISCKSSQSLLASDGKTYLNWLLQRPGQSPKRLIYLVSKLDSGVPNRFSGSGSGTDFTLQISRVEAEDVGLYYCMQGAHFPFTFGGGTKVEIKR
modifications: Humanized Heavy chain variable region; Humanized Light chain variable region
With B12, in data set [1], the “SEC % Monomer” value turned out to be 75.2%.

Source of the values: patent US20220249679A1 (Mitsubishi Tanabe Pharma Corporation, priority 2018, published 2022).
